Results reported in publication PMC5814829.

Columns and labels:
Experiment in all cases: fluorescence anisotropy
[1] = molecular target: T1, ScPif1p K595A (Saccharomyces cerevisiae, UniProt P07271 237-780, K595A)
T1 sequence: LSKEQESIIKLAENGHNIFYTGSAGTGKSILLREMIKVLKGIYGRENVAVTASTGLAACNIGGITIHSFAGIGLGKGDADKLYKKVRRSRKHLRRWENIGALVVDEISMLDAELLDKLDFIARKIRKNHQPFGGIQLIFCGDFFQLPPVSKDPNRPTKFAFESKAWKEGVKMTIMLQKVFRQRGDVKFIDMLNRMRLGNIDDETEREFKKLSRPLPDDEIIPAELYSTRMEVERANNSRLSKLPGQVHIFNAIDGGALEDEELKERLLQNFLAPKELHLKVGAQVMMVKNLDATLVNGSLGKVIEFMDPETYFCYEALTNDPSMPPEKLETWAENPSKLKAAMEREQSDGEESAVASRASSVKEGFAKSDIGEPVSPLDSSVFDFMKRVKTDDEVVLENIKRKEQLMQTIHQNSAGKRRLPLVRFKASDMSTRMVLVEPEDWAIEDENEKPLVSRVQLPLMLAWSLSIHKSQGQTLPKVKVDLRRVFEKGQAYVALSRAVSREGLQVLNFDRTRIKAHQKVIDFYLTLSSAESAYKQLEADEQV

[2] = molecular target: T2, ScPif1p D677T (Saccharomyces cerevisiae, UniProt P07271 237-780, D677T)
T2 sequence: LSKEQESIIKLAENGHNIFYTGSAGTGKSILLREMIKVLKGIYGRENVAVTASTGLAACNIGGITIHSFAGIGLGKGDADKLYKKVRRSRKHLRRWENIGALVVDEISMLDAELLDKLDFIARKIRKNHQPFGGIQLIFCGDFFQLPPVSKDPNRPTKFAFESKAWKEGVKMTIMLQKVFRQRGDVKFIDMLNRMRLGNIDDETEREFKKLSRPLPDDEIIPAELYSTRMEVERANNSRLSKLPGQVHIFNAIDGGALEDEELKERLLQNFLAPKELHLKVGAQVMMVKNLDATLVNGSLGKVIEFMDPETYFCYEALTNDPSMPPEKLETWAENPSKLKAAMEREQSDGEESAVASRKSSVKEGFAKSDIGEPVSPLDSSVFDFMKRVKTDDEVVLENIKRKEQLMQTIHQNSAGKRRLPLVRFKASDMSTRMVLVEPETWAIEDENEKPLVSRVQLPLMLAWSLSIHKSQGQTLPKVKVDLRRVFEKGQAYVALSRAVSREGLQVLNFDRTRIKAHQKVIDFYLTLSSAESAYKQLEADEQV

[3] = molecular target: T3, ScPif1p (237-780) (Saccharomyces cerevisiae, UniProt P07271 237-780)
T3 sequence: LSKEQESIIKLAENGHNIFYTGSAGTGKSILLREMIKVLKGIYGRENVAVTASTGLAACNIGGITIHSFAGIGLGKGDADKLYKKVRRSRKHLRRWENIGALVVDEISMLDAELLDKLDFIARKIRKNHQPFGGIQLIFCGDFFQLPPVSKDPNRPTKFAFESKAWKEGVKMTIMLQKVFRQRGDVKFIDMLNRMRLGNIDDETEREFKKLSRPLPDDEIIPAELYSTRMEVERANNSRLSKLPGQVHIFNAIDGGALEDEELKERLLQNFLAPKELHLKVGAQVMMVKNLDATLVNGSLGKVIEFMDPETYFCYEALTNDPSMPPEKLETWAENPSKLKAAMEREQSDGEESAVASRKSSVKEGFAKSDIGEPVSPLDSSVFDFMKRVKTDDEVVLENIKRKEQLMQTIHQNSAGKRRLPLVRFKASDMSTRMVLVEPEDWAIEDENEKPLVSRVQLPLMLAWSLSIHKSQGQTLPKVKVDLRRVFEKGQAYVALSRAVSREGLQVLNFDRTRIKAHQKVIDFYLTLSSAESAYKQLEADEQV

## GTGTGTGTGGTG (ssDNA) [GR12]
[1]
  Kd: 10.2 ± 1.8 nM
[2]
  Kd: 10.5 ± 2.6 nM
[3]
  Kd: 7.8 nM
